In US20230079150A1, “METHODS FOR PREVENTION OR TREATMENT OF VIRUS-INDUCED ORGAN INJURY OR FAILURE WITH IL-22 DIMER” (priority 2020, published 2023):

Tested on: H1N1 influenza (A/PR8 strain)
Type: in vivo, C57BL/6 mice

B1: F-652: recombinant IL-22 dimer consisting of two monomeric subunits each comprising a sequence shown in SEQ ID NO: 24 (protein)
chain 1: APISSHCRLDKSNFQQPYITNRTFMLAKEASLADNNTDVRLIGEKLFHGVSMSERCYLMKQVLNFTLEEVLFPQSDRFQPYMQEVVPFLARLSNRLSTCHIEGDDLHIQRNVQKLKDTVKKLGESGEIKAIGELDLLFMSLRNACIGSGGGSGGGGSGGGGSVECPPCPAPPVAGPSVFLFPPKPKDTLMISRTPEVTCVVVDVSHEDPEVQFNWYVDGVEVHNAKTKPREEQFNSTFRVVSVLTVVHQDWLNGKEYKCKVSNKGLPASIEKTISKTKGQPREPQVYTLPPSREEMTKNQVSLTCLVKGFYPSDIAVEWESNGQPENNYKTTPPMLDSDGSFFLYSKLTVDKSRWQQGNVFSCSVMHEALHNHYTQKSLSLSPGK
chain 2: APISSHCRLDKSNFQQPYITNRTFMLAKEASLADNNTDVRLIGEKLFHGVSMSERCYLMKQVLNFTLEEVLFPQSDRFQPYMQEVVPFLARLSNRLSTCHIEGDDLHIQRNVQKLKDTVKKLGESGEIKAIGELDLLFMSLRNACIGSGGGSGGGGSGGGGSVECPPCPAPPVAGPSVFLFPPKPKDTLMISRTPEVTCVVVDVSHEDPEVQFNWYVDGVEVHNAKTKPREEQFNSTFRVVSVLTVVHQDWLNGKEYKCKVSNKGLPASIEKTISKTKGQPREPQVYTLPPSREEMTKNQVSLTCLVKGFYPSDIAVEWESNGQPENNYKTTPPMLDSDGSFFLYSKLTVDKSRWQQGNVFSCSVMHEALHNHYTQKSLSLSPGK
modifications: homodimer
decreased small airway resistance at baseline (pattern differences) (6-week treatment groups): not seen
input impedance (Re Zrs): baseline resistance in small airways (aged mice, not young mice, prior to airway recruitment maneuver): significantly improves baseline resistance
